For the experiment, the target named is T1, HLA-A*02:01 (human).
T1 construct: the tested peptide takes its place; also called peptide-receptive MHC molecules; MHC class I
Briefly: UV-ligand exchange, anti-β2m ELISA; grade of peptide exchange yield. From the text:
Candidate peptides for T cell based therapies according to the present invention were further tested for their MHC binding capacity (affinity). The individual peptide-MHC complexes were produced by UV-ligand exchange, where a UV-sensitive peptide is cleaved upon UV-irradiation, and exchanged with the peptide of interest as analyzed. Only peptide candidates that can effectively bind and stabilize the peptide-receptive MHC molecules prevent dissociation of the MHC complexes. To determine the yield of the exchange reaction, an ELISA was performed based on the detection of the light chain (β2m) of stabilized MHC complexes. The assay was performed as generally described in Rodenko et al. (Rodenko et al., 2006).
96 well MAXISorp plates (NUNC) were coated over night with 2 ug/ml streptavidin in PBS at room temperature, washed 4× and blocked for 1h at 37° C. in 2% BSA containing blocking buffer. Refolded HLA-A*02:01/MLA-001 monomers served as standards, covering the range of 15-500 ng/ml. Peptide-MHC monomers of the UV-exchange reaction were diluted 100 fold in blocking buffer. Samples were incubated for 1 h at 37° C., washed four times, incubated with 2 ug/ml HRP conjugated anti-β2m for 1h at 37° C., washed again and detected with TMB solution that is stopped with […]. Absorption was measured at 450 nm. Candidate peptides that show a high exchange yield (preferably higher than 50%, most preferred higher than 75%) are generally preferred for a generation and production of antibodies or fragments thereof, and/or T cell receptors or fragments thereof, as they show sufficient avidity to the MHC molecules and prevent dissociation of the MHC complexes.
Background: In an ELISA, binding on a coated surface is turned into a signal by an enzyme label.
With YLHNQGIGV [YLHNQGIGV (SEQ ID NO: 148)], the peptide exchange yield was 20 to 50%. As for TTFPRPVTV [TTFPRPVTV (SEQ ID NO: 145)], the figure is 50 to 75%. As for ILLTGTPAL [ILLTGTPAL (SEQ ID NO: 110)], the figure is 50 to 75%. With AQYKFVYQV [AQYKFVYQV (SEQ ID NO: 12)] the figure was 50 to 75%. On to FVDTRTLL [FVDTRTLL (SEQ ID NO: 1)], for which the peptide exchange yield is 20 to 50%. Regarding FLFGEEPSKL [FLFGEEPSKL (SEQ ID NO: 130)], the peptide exchange yield fell in the range of 50 to 75%. As for FLQPDLDSL [FLQPDLDSL (SEQ ID NO: 104)], the figure is 50 to 75%; as for SLLNPPETLNL [SLLNPPETLNL (SEQ ID NO: 140)], 50 to 75%.

ILASVILNV [ILASVILNV (SEQ ID NO: 109)] gave a peptide exchange yield of at least 75%. As for SLYGYLRGA [SLYGYLRGA (SEQ ID NO: 142)], the figure is 50 to 75%; as for TLWYRPPEL [TLWYRPPEL (SEQ ID NO: 118)], 50 to 75%; as for SLMDPNKFLLL [SLMDPNKFLLL (SEQ ID NO: 115)], 50 to 75%. With VLGDDPQLMKV [VLGDDPQLMKV (SEQ ID NO: 119)] the figure was 50 to 75%; with YLDEDTIYHL [YLDEDTIYHL (SEQ ID NO: 121)], 20 to 50%; with LLLAAARLAAA [LLLAAARLAAA (SEQ ID NO: 111)], 50 to 75%. As for KISTITPQI [KISTITPQI (SEQ ID NO: 123)], the figure is 20 to 50%. SIDRNPPQL [SIDRNPPQL (SEQ ID NO: 139)] came in with a peptide exchange yield of 50 to 75%. As for YAFPKAVSV [YAFPKAVSV (SEQ ID NO: 147)], the figure is 20 to 50%; as for LLSDVRFVL [LLSDVRFVL (SEQ ID NO: 112)], 50 to 75%. As for FLSEVFHQA [FLSEVFHQA (SEQ ID NO: 105)], the figure is 50 to 75%. In turn, ALFQPHLINV [ALFQPHLINV (SEQ ID NO: 150)] had a peptide exchange yield of at least 75%. In turn, KLDDTYIKA [KLDDTYIKA (SEQ ID NO: 135)] gave a peptide exchange yield of 50 to 75%. As for FLIEEQKIVV [FLIEEQKIVV (SEQ ID NO: 131)], the figure is 50 to 75%; as for VLLDKIKNL [VLLDKIKNL (SEQ ID NO: 10)], 20 to 50%; as for LMMSEDRISL [LMMSEDRISL (SEQ ID NO: 113)], 50 to 75%. With MQAPRAALVFA [MQAPRAALVFA (SEQ ID NO: 122)] the figure was at least 75%; with FVWSGTAEA [FVWSGTAEA (SEQ ID NO: 106)], 50 to 75%; with SLFPHNPQFI [SLFPHNPQFI (SEQ ID NO: 114)], 50 to 75%. As for ALSDLALHFL [ALSDLALHFL (SEQ ID NO: 127)], the figure is at least 75%; as for ILLAEGRLVNL [ILLAEGRLVNL (SEQ ID NO: 134)], 50 to 75%; as for ALLSLDPAAV [ALLSLDPAAV (SEQ ID NO: 126)], at least 75%.

In turn, TAVALLRLL [TAVALLRLL (SEQ ID NO: 144)] displayed a peptide exchange yield of 20 to 50%.

Molecule ILDDVSLTHL [ILDDVSLTHL (SEQ ID NO: 133)] came in with a peptide exchange yield of 20 to 50%.

On to ALLGKLDAINV [ALLGKLDAINV (SEQ ID NO: 125)], for which the peptide exchange yield was 50 to 75%. With SVDGVIKEV [SVDGVIKEV (SEQ ID NO: 117)] the figure was 50 to 75%.

In turn, ALYDVRTILL [ALYDVRTILL (SEQ ID NO: 128)] showed a peptide exchange yield of 50 to 75%.

Regarding ILGTEDLIVEV [ILGTEDLIVEV (SEQ ID NO: 149)], the peptide exchange yield lay in the range of 50 to 75%. With ALYYNPHLL [ALYYNPHLL (SEQ ID NO: 11)] the figure was 20 to 50%; with FVYGGPQVQL [FVYGGPQVQL (SEQ ID NO: 107)], 50 to 75%; with ALFEESGLIRI [ALFEESGLIRI (SEQ ID NO: 124)], 50 to 75%. Consider FLWAGGRASYGV [FLWAGGRASYGV (SEQ ID NO: 132)], for which the peptide exchange yield is 50 to 75%.

The molecule KLFPGFEIETV [KLFPGFEIETV (SEQ ID NO: 136)] yielded a peptide exchange yield of at least 75%. As for FIIDNPQDLKV [FIIDNPQDLKV (SEQ ID NO: 14)], the figure is 50 to 75%. With KLGPEGELL [KLGPEGELL (SEQ ID NO: 137)] the figure was 50 to 75%; with VLISGVVHEI [VLISGVVHEI (SEQ ID NO: 146)], 50 to 75%; with ALYEKDNTYL [ALYEKDNTYL (SEQ ID NO: 129)], 50 to 75%.

Molecule FIDSSNPGL [FIDSSNPGL (SEQ ID NO: 13)] registered a peptide exchange yield of 20 to 50%. With NIFPNPEATFV [NIFPNPEATFV (SEQ ID NO: 138)] the figure was 50 to 75%; with SMMDPNHFL [SMMDPNHFL (SEQ ID NO: 116)], at least 75%.

Source of the values: patent US20160368965A1 (IMMATICS BIOTECHNOLOGIES, published 2016).
